# Test results: the DeepSol protein solubility set
# Test: soluble on expression in E. coli; label from the status in PepcDB or PDB records
row,Sequence,soluble on expression in E. coli
1,IIHEVQKEEACGNLTLQHHMLEPVQRIPRYELLLKDYLLKLPHGSPDSKDAQKSLELIATAAEHSNAAIRKMERMHKLLKVYELLGGEEDIVSPTKELIKEGHILKLSAKNGTTQDRYLILFNDRLLYCVPRLRLLGQKFSVRARIDVDGMELKESSNLNLPRTFLVSGKQRSLELQARTEEEKKDWVQAINSTLLKHEQTLETFKLLNSTNREDEDTPPNSPNVDLGKRAPTPIREKEVTMCMRCQEPFNSITKRRHHCKACGHVVCGKCSEFRARLVYDNNRSNRVCTDCYVALHGVPGSSPACSQHTPQRRRSILEKQASVAAENSVICSFLHYMEKGGKGWHKAWFVVPENEPLVLYIYGAPQDVKAQRSLPLIGFEVGPPEAGERPDRRHVFKITQSHLSWYFSPETEELQRRWMAVLGRAGRGDTFCPGPTLSEDREMEEAPVAALGATAEPPESPQTRDKT,soluble
2,SETRSPGLNNMKPQSLQLVLEEQVLALQQQMAENQAASWRKLKNSQEAQQRQATLVRKLQAKVLQYRSWCQELEKRLEATGGPIPQRWENVEEPNLDELLVRLEEEQQRCESLAEVNTQLRLHMEKADVVNKALREDVEKLTVDWK,soluble
3,MFTAGSATVTPKLNGVAGPAFQVIKDSLTLGLNALTLTDVTKNAAYGVEIESLVLEINAPAA,soluble
4,MSDMNNPADDNNGAMDDLWAEALSEQKSTSEKSAADAVFQQFGGGDVSGTLQDIDLIMDIPVKLTVELGRTRMTIKELLRLTQGSVVALDGLAGEPLDILINGYLIAQGEVVVVADKYGVRITDIITPSERMRRLSR,not soluble
5,MDILVREVDVSEYVSIVVNRDSFNTIEYFICAPFSGQRLRGTARPGQTVVFRQQNLTNVVEKLGKNSFRCIVKADELPKSFQKSQEFVVARGRFQQFLKVAEGSRLSKLEPMSDTEMASNAIKDVREMAEQDLIGSRKTPFYEMFTRFAQQKVTSSDQEDTIENLHTRNNYEDIFDVLKSNLNKNEQLNDIDGRNNQKSDKMTEVDQTDKMHLTELEVKQKV,not soluble
6,GPGSMNPHSRMPEDGGNAQPNETHRLMVGAAGQRPNVSGQFGKSTSPSLVAFAFLHLPLEDGCGAEEEEQNFLAFDVTTWATRIRNEGISGAVVDLWGAYNYYWHQADDRVQLALDSLASWMHALEMDRDPADRFTDLGRILLQVFWLQMMVTTANPGITISTLCARLHMAVHEAETCARATKPLA,soluble
7,MTQERPSKLSFSIEETVWLNKGQEVKEILAMSLEPDIRIEEKQDHVYIKGGLRLLGEYVPTEEEATLDPTSAIQEQVSFRSVEEVTIDDEGKGSIQHFFPIDVTIPLSRIQKLDDIYVQVDSFDYDLPERSCIQLTADVSISGMTSEPPVSKQKAQSERPAAIDPLPKPPQLEPIPSTFSFEAKKPFVNEEAGAWNEGVQSRQTFKFQPADNENKLEEDVVVSNEEQAHEGEPIEESKADQAKVEESTASVQKQQEENHQQEVTSVANQDETAEGQVNEGNAIEPAMMRGEVDVEHYDSESVEEEENPTKIQLGVQREEVAIDEESQEDLGEDTDEPKGHREENALYLTKMMTNGEEEFSKLKMCIIQENESLDMIAERYDISTSHLIRFNRLTEERVEEGQILYIPVPSHQSKEGLEHHHHHH,soluble
8,MGSDKIHHHHHHMNITSKLNQIIQECLVNRDSDLFIMPRFDKYQLLYRDAGGYRKSALIDRDEAEQIMMYIKYRADMGISERRRPQSGAMTWLNRQGELVNLRISTVGDFLDRPSMVIRFIYVLKQDEHILDSESMEKIQLATKLRGLMVFSGPMGSGKTTLIYEVARKLSETKMVMSIEDPVEIREHNFLQLQVNEKSGMSYQELLKNGLRNRPDVFIIGEIRDGKTAEIAIQAALSGHLVLTTVHSKSTQGVWNRIVELGVREEHLKEALTAVIYQRMIPAKVGDLKIMAEIKSFHPALKGTKKKWRERLEEWKESGQITKEVFEDFQYG,not soluble
9,MVTVPDAIKGSSPTPQQDLVRVMSAPQLYVGQEARFGGKVVAVQNQQGKTRLEIATVPLDSGARPTLGEPSRGRIYADVNGFLDPVDFRGQLVTVVGPITGAVDGKIGNTPYKFMVMQVTGYKRWHLTQQVIMPPQPIDPWFYGGRGWPYGYGGWGWYNPGPARVQTVVTELEHHHHHH,soluble
10,MAGWRTVVVNTHSKLSYKNNHLIFKDAYKTELIHLSEIDILLLETTDIVLSTMLVKRLVDENVLVIFCDDKRLPTAMLMPFYGRHDSSLQLGKQMSWSETVKSQVWTTIIAQKILNQSCYLGACSYFEKSQSIMDLYHGLENFDPSNREGHAARIYFNTLFGNDFSRDLEHPINAGLDYGYTLLLSMFAREVVVSGCMTQFGLKHANQFNQFNFASDIMEPFRPLVDKIVYENRNQPFPKIKRELFTLFSDTFSYNGKEMYLTNIISDYTKKVVKALNNEGKGVPEFRI,not soluble
11,PMVTAATSLRRALENPDSFIVAPGVYDGLSARVALSAGFDALYMTGAGTAASVHGQADLGICTLNDMRANAEMISNISPSTPVIADADTGYGGPIMVARTTEQYSRSGVAAFHIEDQVQTKRCGHLAGKILVDTDTYVTRIRAAVQARQRIGSDIVVIARTDSLQTHGYEESVARLRAARDAGADVGFLEGITSREMARQVIQDLAGWPLLLNMVEHGATPSISAAEAKEMGFRIIIFPFAALGPAVAAMREAMEKLKRDGIPGLDKEMTPQMLFRVCGLDESMKVDAQAGGAAFDGGVDLK,soluble
12,GDAAKGEKEFNKCKTCHSIIAPDGTEIVKGAKTGPNLYGVVGRTAGTYPEFKYKDSIVALGASGFAWTEEDIATYVKDPGAFLKEKLDDKKAKTEMAFKLAKGGEDVAAYLASVVK,soluble
13,AISQDYNINMSGGNDKGTYYAGLGYNRQEGLPIKTFYERYSFVLNASYKITDWLTSSSNFNYNRANWKNMPGSQTSEGNYFGRIMSTPPTVRFQDEDGNPTLGPVAGDGNQNYQPDKWWNFNQSDKFTMVQAFQIDILKNLSVKGTANWYYSESLAESFTRDYENTPGQFVRTRSSSASFSRNFSQTYNVVLNYNQTFAKDHNVAVMLGMEYFDRYSRSFSASGSGAPTDDFADLSLTDNGEGKRSIDSGHSDYRILSYFGRLNYDYKGRYLLSAVFRQDGYSSLLGDNRWGFFPGVSAGWIFGQENFVKNALPFLSFGKLRASYGVNGNATGIGAYDLQGSYNSQKYNGNVGFLIGALPNPGLKWEKTRTAEVGIDMSFFENRLNANFTYYNRLTSDKYANLSLPSTTGFSSIKNNNGKFRNSGVEIELSGKILKTKDWSWDLGGNISFNKNKIVSLPDNGLIRNQQDAAQIYSGRQLSDGTYEKIWVGGNQEGYEPGVLIAYKADGLYRSWDEIPGDLVVTSGNYFGKKMYGPEAWKKLSSAEQKNALPIQPGDVKWRDINGDGMIDNYDQVVVGNTNPHWIGGFNTTLRWKNFQLYGRFDFAFDYWIYDNTTPWFLGCMQGTYNTTKDVFNTWSEENPNAKYPRFVYADQLMNANYYRTSTLFAYKGNYLAIREISLSYSLPKAWANKAYCQKVDVSITGQNLGYITSANVASPEVSSAGSGYALPRTLLFGLNVTF,not soluble
14,MAMQFVMRLAREFRRADWRRMLSDMSATELGEWGDYFRMQSFSDVWMDAQFASLKALIVRMVSGSSDAAVADFSLLPEENGIPERTDEELMHLGEGISGGVRYGPDSQPGHLEHHHHHH,not soluble
15,MGSDKIHHHHHHMNLYVGLDVGTTGVKGILVNEKGEILATANERLTMFTPQPAWAEQDPLSWWEAVKKILKNLSERSKEMGGKIRAISTSGQMHSLVAIDDNGKVLRNAILWCDQRTYKECEEATQILGGEENVLKLVGNPILPGFTLPKILWIRKHEPEIYGKISKIMLPKDFINYMLTGEVKTEHSDASGTVMYSVSKMEWNKDVLKELNIPESVLPEIIPSNGVVGNVKPEVASDLGLSEDTLVIGGGADNACAALGIAVVEPGDVMVSLGTSGTVLAPTKGNQPDPKGRVHFFAHTVPETRYHMGVMLSATYSLEWFKEKFLSEDYETINEEVDKIPAGSNGIIFLPYLNGERTPHRDPFARGVFFGISSYNTKWDMVRAIFEGVAFGIKDSFDILRELKVVLNSVRITGGGSKSRVWNKMLADMTGLRIQKPAVDEGASYGAAILAVSGSMGENPAKISKEWFRVKSYTDPAVENTETYEKLHEKFKKLYTSLKEMFRS,not soluble
16,MGSDKIHHHHHHMVLKVFKDHFGRGYEVYEKSYREKDSLSFFLTKEEEGKILVVAGEKAPEGLSFFKKQRAEGVSFFFCERNHENLEVLRKYFPDLKPVRAGLRASFGTGDRLGITTPAHVRALKDSGLFPIFAQQSVRENERTGRTWRDVLDDATWGVFQEGYSEGFGADADHVKRPEDLVSAAREGFTMFTIDPSDHVRNLSKLTEKERNEKFEEILRKERIDRIYLGKKYSVLGEKIEFDEKNLRDAALVYYDAIAHVDMMYQILKDETPDFDFEVSVDETETPTSPLFHIFVVEELRRRGVEFTNLALRFIGEWEKGIDYKGDLAQFEREIKMHAEIARMFEGYKISLHSGSDKFSVYPAFASATGGLFHVKTAGTSYLEAVKVISMVNPELFREIYRCTLDHFEEDRKSYHISADLSKVPEVEKVKDEDLPGLFEDINVRQLIHVTYGSVLKDASLKERLFKTLEQNEELFYETVAKHIKRHVDLLEG,not soluble
17,MPLSKRRAAGRINGLKGPPAKKRKEIERHEALLMHPLAYTAEQYEQVAEESKFYKNCFETTAAENVELLKSNDQLKKELELLKNQQGNQLKVDMKFKSQIESTRQSNMTLLREREIWQNRYYDVLAEKLALSARVKSMMGDIVESVEVPNDSNGNTWELREDLEIDRSARRKTEEEPKAQKMNSTRGSLPRNQCSTRSNNQTPNEMLLKMAIGLDTTSVN,not soluble
18,MKGLYPESVISRFDFAVTEDNKIKMLEFNSDTPTFIVECFQMNGKVCGNLGYDDPNSDQERLLSSGVTKAVMEATKGLDNPNVVFTAHHEHIEDWNTTMYLSQLCHVENKVVPMSELRITKDALVDKDGAKIDVLYRQTYPIEDLIEDQDPETGDLVGVELLQLVKAGKLFIINPLSAFLLQPKSIQCLIWGLAEEEAFYTNEEQQWIKEYMLPTYLEPDLFLGKGSFVQKPSFGREGDTITIRDKDENIMLQNAHQTYKASLPIFQKYIELPVVSLETEKGIEKLSYVFGSFLIAGKASSIGIRAGEKITGNESYYLPVGIKRRGKND,not soluble
19,MDEYNKNPEENDKPEYDMKMEALLKVLNREIPIKAHAHRADDILTAIRIAKEFGLRLTIEHCTEGHLIKDILAEEGVSAIVGSSLTDRSKVELRNLSLKTPGILAKAGVKVAIMTDHPCTPIQYLILCAAMAVREGMDEMEALRAVTINAAELTGIADRVGSIEVGKDADIAIYDGHPFDIRSKVSTTIINGKVVYERKKHERD,not soluble
20,MGSDKIHHHHHHMPQLRDSGNHSTAPLDAHTKDEIQSFARIFGIETEYGVSVTGSDRPCDAGQTAMMMFQPIVAEARSTNTYIENGSRLYLDVGSHPEYATAEARDPMDALALDAAGELVMRDLALDAQRRLRSIQGAGSTVHVFKNNVDSAGHSFGCHENYLVRRFVPLKTIEQELLPFLITRQLFTGAGRMGEQGFQITQRADFLDEAVSSATTRSRPMVNTRDEPHADPDAFRRLHVIIGDSNRSQWATMMKLATTHLVLCVIEQAGREGKDSGFARFSFADASAANHKVSRDLTGVEASFDMADGTVMEGGAVAIQERYLEIVERFVGQHPEVCSSLPRTDVHEVIRRWRRVIEAFRSGVSETFADKVDWLAKRRLFDMLRNRAGGRLSVSKLEQLDMDYHDVANGALYASLCRRGAMRTLVNESQAHEAIDVPPHDTRAALRGRFIQSARSHNAQYSCDWTRLSLTSPNRMDVTLLDPFDAQPSDRFLTILEALQ,not soluble
